Values joined by “and” are separate entries in the source; they are usually repeats but may differ in a detail not shown here. Equal values may be shown once.
Assays:
Settings in all cases: both partners purified
[1] = molecular target: T1, HSV-1F gB ectodomain (recombinant glycoprotein B of Herpes simplex virus 1 strain F, aa 30-729) (Herpes simplex virus 1 (strain F), UniProt P06436, biotin (EZ-Link NHS-PEG4-Biotin, gB monomer to biotin 1:3) in the BLI only); experiment: BLI
[2] = molecular target: T2, HSV-2G gB ectodomain (recombinant glycoprotein B of Herpes simplex virus 2 strain G, aa 22-724) (Herpes simplex virus 2 (strain G), biotin (EZ-Link NHS-PEG4-Biotin, gB monomer to biotin 1:3) in the BLI only); experiment: BLI
T2 construct: also called HSV-2 gB; recombinant HSV-2 gB; not shown: double Strep-tag, C-terminal, cleaved

[3] = molecular target: T1, HSV-1F gB ectodomain (recombinant …); experiment: cryo-EM 2D class averages; recombinant HSV-1 gB trimers incubated with a 1:1 molar mixture of HDIT101 and HDIT102 Fabs; 2D classes calculated from micrographs
[4] = molecular target: T2, HSV-2G gB ectodomain (recombinant …); experiment: cryo-EM structure
[5] = molecular target: T1, HSV-1F gB ectodomain (recombinant …); experiment: cryo-EM structure

B1: HDIT101 IgG (antibody, V domains shown)
VH: TLKESGPALVKPTQTLTLTCTFSGFSLSTSGMSVGWIRQPPGKALEWLAHIWWNNDKYYKPALKSRLTISKDTSKNQVVLTMTNMDPVDTATYYCARIYYGYRPYAMDYWGQGTLVTVSS
VL: IVMTQTPLSLPVTPGEPASISCRSSQSIVHSNGNTYLEWYLQKPGQSPQLLIYKVSNRFSGVPDRFSGSGSGTDFTLKISRVEAEDVGVYYCFQGSHVPWSFGQGTKLEIK
notes: also called humanized IgG HDIT101; source: GMP-grade, produced by Celonic Germany GmbH (contract manufacturer)
How did the kon [1] turn out when B1 was run?
The kon was 500000 M⁻¹ s⁻¹.

B2: HDIT101 Fab (Fab, V domains shown)
VH: B1 VH
VL: B1 VL
notes: source: papain digestion of GMP-grade HDIT101 IgG1 (Celonic Germany GmbH), Pierce Fab Preparation Kit
B2 was tested. Which Kd [2] did it give?
Its Kd is 18.1 nM.

What about the koff [2] of the same binder?
Its koff is 0.00379 s⁻¹.

And the kon [2]?
Its kon is 212000 M⁻¹ s⁻¹.

What about the Kd [1] of the same binder?
The Kd was 7.26 nM.

And the koff [1]?
Its koff is 0.00313 s⁻¹.

And the kon [1]?
Its kon is 435000 M⁻¹ s⁻¹.

What about the “stoichiometry N” value [3] of the same binder?
Its value is 1 Fab per gB trimer.

What about the “stoichiometry N” value [4] of the same binder?
The value was 3 Fab per gB trimer.

And the “stoichiometry N” value [5]?
Its value is 3 Fab per gB trimer.

B3: HDIT102 Fab (Fab, V domains shown)
VH: EVQLVQSGAEVKTPGASVRVSCKASGHTFRTFDINWVRQAAGQGLEWMGWMSPNSGNTGYARQFQGRVTMTRNISANTAYMELRGLRFDDTAVYYCARGPGSTGTTGSMDVWGQGTTVTVSS
VL: QAGLTQPPSVSVAPGKTARISCGGNNIGSKSVHWYQQKPGQAPVLVIYYDSDRPSGIPERFSGSNSGNTATLTISRVEAGDEADYYCQVWDSGSVVFGGGTKLTVL
B3 was tested. Which Kd [2] did it give?
Its Kd is 0.0329 nM.

What about the koff [2] of the same binder?
The koff was 2.86e-05 s⁻¹.

What about the kon [2] of the same binder?
Its kon is 865000 M⁻¹ s⁻¹.

And the Kd [1]?
Its Kd is 0.0895 nM.

And the koff [1]?
Its koff is 8.85e-05 s⁻¹.

What about the kon [1] of the same binder?
Its kon is 992000 M⁻¹ s⁻¹.

What about the “stoichiometry N” value [3] of the same binder?
The value was 3 Fab per gB trimer and 2 Fab per gB trimer.

B4: HDIT102 IgG (antibody, V domains shown)
VH: B3 VH
VL: B3 VL
notes: also called fully human IgG HDIT102; source: research grade quality, by contract manufacturer
With B4 as the binder, how does the kon [1] read?
Its kon is 700000 M⁻¹ s⁻¹.

— publication PMC11134845, “Development of a highly effective combination monoclonal antibody therapy against Herpes simplex virus” (Journal of Biomedical Science, 2024)
